Test results as given in patent US20150351390A1, “COMPOSITIONS AND METHODS FOR AUXIN-ANALOG CONJUGATION” (PIONEER HI-BRED INTERNATIONAL, INC., priority 2012, published 2015).

B1: PtGH3-3: GH3 protein, accession EEE85053 (protein, listed as Populus trichocarpa)
chain: MAVDNALSSPLGPPACEKDAKALQFIEEMTRKTDSVQEDVLAKILIQNAEVEYLKRFNLDGATDRETFKSKLPTIRYEDLQPEIQRIANGDRSSILSTHPISEFLTSSGTSAGERKLMPTIKQELDRRQLLYSLLMPVMNLYVPGLDKGKGLYFLFVKSETRTPGGLLARPVLTSYYKSDHFKTRPYDPYNVYTSPNEAILCADSFQSMYTQMLCGLLEREQVLRVGAVFASGLLRAIRFLQLHWRELADDIESGMLNKEITDPSVKDCMVKILKPNPKLAEFVRMECSKENWEGIITRIWPNTKYLDVIVTGAMAQYIPTLDYYSGGLPLACTMYASSECYFGLNLNPMCKPSEVCYTIMPNMAYFEFLPHDPNGFTHDSTPKLVDLADVELGKEYELVITTYAGLYRYQVGDILRVTGFHNSAPQFHFVRRKNVLLSIDSDKTDEAELQKAVENASQLLREFNTSVVEYTSYADTKTIPGHYVIYWELLVKDLANSPSDEVLNQCCLAMEECLNSVYRQGRVADYSIGPLEIRVVKNGTFEELMDYAISRGASINQYKVPRCVNFTPIMELLDSRVVSKHFSPALPYWTPERRR
B2: RcGH3-3: GH3 protein, accession XP_002524947 (protein, listed as Ricinus communis)
chain: MAVDSGLSSPLGPPACEKDAKALQFIEEMTRNIDSVQEKVLAEILSRNAETEYLERFQLNGATDRDAFKSKVPVVTYEDLQPEIQRIANGDRSNIFSSHPISEFLTSSGTSAGERKLMPTIHEELDRRTLLYSLLMPVMNLYVPGLDKGKGLYFLFVKAETKTPGGLVARPVLTSYYKSEHFKNRPFDPYNVYTSPNETILCPDSFQSMYSQMLCGLIMREEVLRVGAVFASGLLRAIRFLQINCKHLAEDISTGTLNPKISDPSIRECMAKILKPNPELAEFITKECSEENWEGIITRIWPNTKYLDVIVTGAMAQYIPTLEYYSNGLPMACTMYASSECYFGVNLNPMVKPSDVSYTIMPNMAYFEFLPHESSSSALSRDSPPRLVDLADVEVGKEYELVITTYAGLNRYRVGDILRVTGFHNAAPQFRFIRRKNVLLSIDSDKTDESELQKAIENASLLLREFNTSVVEYTSYGDTKTIPGHYVIYWELLIKDPSNSPTEQVLNQCCLAMEESLNSVYRQGRVADSSIGPLEIRVVKNGTFEELMDYAISRGASINQYKVPRCVSFTPIMELLDSRVVSKHFSPSLPQWTPERRR
B3: PtGH3-4: GH3 protein, accession EEE95321 (protein, listed as Populus trichocarpa)
chain: MPEEAPMKNLVCEKSRKALQFIEDVTRNADEVQRKVLAEILSRNANVEYLQRYGLNGNKADREAFKKVMPVVSYEDLKPDIDRIANGDTSQIICSQPISEFLTSSGTSAGERKLMPTIEEELGRRSLLYSLLMPVMNQFVPGLDRGKGMYFLFIKSETKTPGGLLARPVLTSYYKSSYFRDRPYDPYTNYTSPNETILCQDSYQSMYSQLLCGLYQNYDVLRVGAVFASGFIRAIKFLEKHWILLCNDIRNGTIDPKISDPSVREAVLKILKPNQKLADFIEAECTRESWKGIITRLWPNTKYIDVIVTGTMSQYIPTLDYYCDGLPLVCTMYASSECYFGLNLNPLSKPSEVSYTLIPTMAYFEFLPVNRKNGLINSITAPTSLDQKKDQELVDLVDVKLGEEYELVVTTYAGLYRYRVGDILRVAGFKNKAPQFNFVCRKNVVLSIDSDKTDEVELQNAVQNAANHLLPFGASLTEYTSYADTSKIPGHYVLFWEICLSGTTPIPPSVFEDCCLAIEESLNSVYRQGRVSDKSIGPLEIRITERGAFDKLMDFALSQGASINQYKAPRCVKYAPIIELLNSRVVSNYISPKCPKWVPGHKQWCTPN
B4: PtGH3-6: GH3 protein, accession EEE95183 (protein, listed as Populus trichocarpa)
chain: MPEAPKNTLKTSDYNLAEKNKISLQFIEDVTSNADEVQKKVLEEILSRNAHVEYLQRHGLNGQTNRETFKKAVPVITYEDIQPDINRIANGDTSQILCSKPISEFLTSSGTSGGERKLMPTIEEELGRRSLLYSLLMPVMTQFVPGLEKGKGMYFLFIKSEAKTPGGLVARPVLTSYYKSTHFKDRPYDPYTNYTSPNETILCPDSYQSMYSQMLCGLCQHKEVLRVGAVFASGFIRAIRFLEKHWKLLANDIRTGIIDPQITDPSVREAVMKILKSDPKLADFIEAECSKESWQGIITRLWPNTKYVDVIVTGTMSQYIPTLDYYSNGLPLVCTMYASSECYFGVNLNPICKPSEVSYTLIPTMAYFEFLPVHRNNGVINSVSMPKSLNEKEQQELVDLVDVKLDQEYELVVTTYAGLYRYRVGDVLRVVGFKNKAPRFSFICRKNVVLSIDSDKTDEVELQSAVKNAVNHLIPFDATLAEYTSYADTTTIPGHYVLFWELSLNGSTPIPPSVFEDCCLTIEESLNSVYRQGRASDKSIGPLEIKIVEPGTFDKLMDYAISLGASINQYKTPRCVKFAPIVELLNSRVVTCYFSPKCPKWAPGHKQWSKN
B5: PtGH3-8: GH3 protein, accession EEE78719 (protein, listed as Populus trichocarpa)
chain: MLPIFDPNDNEAGLKLLEDLTNNACQIQRQVLEYILTTNLHTGYLKSFLNGDSSKENFKNKVPIVNYEDIKPCIERIANGEPSSIISAQPITELLTSSGTSGGQPKMMPSTAEELERKTFFYNLLMPIMNKYVDGLDQGKGMYLLFTKPEISTPSGLMARPVLTSYYKSSNFRNRAFNRYNVYTSPDETILCPDSKQSMYCQLLCGLVQREEVLRVGAVFASAFLRAIKFLEEYQKELCSNIRTGRLSDWITDPNCRNAVSSFLSKPNSELADLIEVECSGKSCEGIIKKLWPRTKYIEVIVTGSMAQYIPTLEFYSGGLPLVSTMYGSSECYLGINFKPLSNPSDVSYTLIPNMAYFEFLPVDKDNKKVIQAEKDVEAVDLEDVKLGHYYELVVTTFTGLYRYRVGDILMVTGFYNNAPQFRFVHRRNVVLSIDTDKTNEEDLLKAVTQAKVLLEPLGFLLTEYTSFADTSSIPGHYVLFWELKTQGTNDLPELDPITMEKCCSTVEESLDSIYRRCRKKDKSIGPLEIRVVTHGTFDALMDFCVSQGSSVNQYKTTRCIKSEEAFKILHSRVVGRFFSKKTPFWE
B6: PtGH3-5: GH3 protein, accession EEE97566 (protein, listed as Populus trichocarpa)
chain: MPEAPKNTLKPSDYNLAEKNKKSLQFIEDVTSNADEAQKKVLEEILSRNAHVEYLQRHGLNGQTNRETFKKVMPVINYEDIQPDINRIANGDASPILCSKPISEFLTSSGTSGGERKLMPTIVEELGRRSLLYSLLMPVMSQFVPDLEKGKGMYFLFIKSEAKTPGGLVARPVLTSYYKSTHFKDRPYDPYTNYTSPNETILCPDSYQSMYSQMLCGLCQHKEVLRVGAVFASGFIRAIRFLEKYWKFLANDIRTGIIDPQITDPSIREAVMKILKPDAKLADFIEAECSKESWQGIITRLWPNTKYVDVIVTGTMSQYIPTLDYYSNGLPLVCTMYASSECYFGVNLNPICKPSEVSYTLIPTMAYFEFLPVNRNNGGINSVSRPKSLKEKEQQELVDLVDVKLDQEYELVVTTYAGLYRYRVGDVLRVVGFKNKAPQFSFICRKNVVLSIDSDKTDEVELQSAVKNAVNHLIPFDATLAEYTSYADTTTIPGHYVLFWELSLSGSTPIPPSVFEDCCLTIEESLNSVYRQGRVSDKSIGPLEIKIVEPGTFDKLMDYAISLGASINQYKTPRCVKFAPIVELLNSRAVSRYFSPKCPKWVPGHKQWNKN
B7: PtGH3-2: GH3 protein, accession EEE87842 (protein, listed as Populus trichocarpa)
chain: MAVDNALSSPLGPPACEKDAKALQFLEEMTRNADSVQEDVLAKILTQNSEVEYLKRFNLDGAIDRETFKSKIPMIRYEDLQPEIQRIANGDRSSILSAHPISEFLTSSGTSAGERKLMPTIKQELDRRQLLYSLLMPVMNLYVPGLDKGKGLYFLFVKSETRTPGGLLARPVLTSYYKSDHFKTRPYDPYNVYTSPNEAILCADSFQSMYTQMLCGLLEREQVLRVGAVFASGLLRAIRFLQLHWRELSDDIESGMLNKKITDPTVKDCMVNILKPNPKLAEFVRMECGKENWEGIITRIWPNTKYLDVIVTGAMAQYIPTLDYYSGGLPKACTMYASSECYFGLNLNPMCKPSEVCYTIMPNMAYFEFLPHEPAGISQDSTPKLVDLADVELGKEYELVITTYAGLYRYRVGDILRVTGFHNSAPQFHFVRRKNVLLSIDSDKTDEAELQTAVENASQLLREFNTSVVEYTSHADTKTIPGHYVIYWELLVKDSANSPGDEVLNQCCLAMEESLNSVYRQGRVADNSIGPLEIRVVKNGTFEELMDYAISRGASINQYKVPRCVNFTPIMELLDSRVVSKHFSPALPRWAPERRR

assay: LC-MS assay of GH3 conjugation of IAA with Asp or Glu; format: biochemical; conditions: conjugation of IAA with Asp by recombinant GH3 protein; IAA-Asp product by LC-MS
Outline: (§1)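 N-His-tagged GH3 homologs expressed in E. coli C41(DE3) and Ni-NTA purified (44 to 164 μg/mL) were incubated 3 hours at 30° C. in 20 mM Tris-HCl pH 8.0, 5 mM MgCl2, 1 mM DTT with 5 mM each of auxin, ATP and Asp or Glu. Conjugates were quantified by LC-MS against standards.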

Question: Which “kcat (hrs−1) IAA-Asp” value does the source give for B1 here?
Answer: Its value is 806.314 h⁻¹.

Question: For B2, which “kcat (hrs−1) IAA-Asp” value is on record?
Answer: The value was 887.172 h⁻¹.

Question: For B3, which “kcat (hrs−1) IAA-Asp” value is on record?
Answer: The value was 660.985 h⁻¹.

Question: For B4, which “kcat (hrs−1) IAA-Asp” value is on record?
Answer: Its value is 888.111 h⁻¹.

Question: For B5, which “kcat (hrs−1) IAA-Asp” value is on record?
Answer: The value was 13.999 h⁻¹.

Question: With B6 as the molecule, how does the “kcat (hrs−1) IAA-Asp” value read?
Answer: The value was 941.117 h⁻¹.

Question: For B7, which “kcat (hrs−1) IAA-Asp” value is on record?
Answer: The value was 679.646 h⁻¹.

same assay, conditions: conjugation of IAA with Glu by recombinant GH3 protein; IAA-Glu product by LC-MS

Question: With B1 as the molecule, how does the “kcat (hrs−1) IAA-Glu” value read?
Answer: Its value is 44.225 h⁻¹.

Question: With B2 as the molecule, how does the “kcat (hrs−1) IAA-Glu” value read?
Answer: The value was 36.015 h⁻¹.

Question: For B3, which “kcat (hrs−1) IAA-Glu” value is on record?
Answer: Its value is 93.781 h⁻¹.

Question: With B4 as the molecule, how does the “kcat (hrs−1) IAA-Glu” value read?
Answer: Its value is 181.954 h⁻¹.

Question: Which “kcat (hrs−1) IAA-Glu” value does the source give for B5 here?
Answer: Its value is 568.780 h⁻¹.

Question: With B6 as the molecule, how does the “kcat (hrs−1) IAA-Glu” value read?
Answer: The value was 160.490 h⁻¹.

Question: Which “kcat (hrs−1) IAA-Glu” value does the source give for B7 here?
Answer: Its value is 53.401 h⁻¹.

assay: LC-MS assay of GH3 conjugation of 2,4-D with Asp or Glu; format: biochemical; conditions: conjugation of 2,4-D with Asp by recombinant GH3 protein; 2,4-D-Asp product by LC-MS; 5 mM 2,4-D substrate
Outline: as §1

Question: With B1 as the molecule, how does the “kcat (hrs−1) 2,4-D-Asp” value read?
Answer: Its value is 2.033 h⁻¹.

Question: With B2 as the molecule, how does the “kcat (hrs−1) 2,4-D-Asp” value read?
Answer: The value was 3.813 h⁻¹.

Question: With B3 as the molecule, how does the “kcat (hrs−1) 2,4-D-Asp” value read?
Answer: Its value is 0.740 h⁻¹.

Question: Which “kcat (hrs−1) 2,4-D-Asp” value does the source give for B4 here?
Answer: Its value is 5.415 h⁻¹.

Question: Which “kcat (hrs−1) 2,4-D-Asp” value does the source give for B5 here?
Answer: Its value is 0.000 h⁻¹.

Question: With B6 as the molecule, how does the “kcat (hrs−1) 2,4-D-Asp” value read?
Answer: Its value is 3.142 h⁻¹.

Question: Which “kcat (hrs−1) 2,4-D-Asp” value does the source give for B7 here?
Answer: Its value is 0.934 h⁻¹.

same assay, conditions: conjugation of 2,4-D with Glu by recombinant GH3 protein; 2,4-D-Glu product by LC-MS; 5 mM 2,4-D substrate

Question: For B1, which “kcat (hrs−1) 2,4-D-Glu” value is on record?
Answer: Its value is 0.845 h⁻¹.

Question: For B2, which “kcat (hrs−1) 2,4-D-Glu” value is on record?
Answer: The value was 1.854 h⁻¹.

Question: For B3, which “kcat (hrs−1) 2,4-D-Glu” value is on record?
Answer: The value was 0.536 h⁻¹.

Question: Which “kcat (hrs−1) 2,4-D-Glu” value does the source give for B4 here?
Answer: The value was 2.816 h⁻¹.

Question: With B5 as the molecule, how does the “kcat (hrs−1) 2,4-D-Glu” value read?
Answer: The value was 0.559 h⁻¹.

Question: Which “kcat (hrs−1) 2,4-D-Glu” value does the source give for B6 here?
Answer: The value was 1.214 h⁻¹.

Question: With B7 as the molecule, how does the “kcat (hrs−1) 2,4-D-Glu” value read?
Answer: Its value is 0.203 h⁻¹.
